Assay results taken from the supplement of paper PMC10724198.
± gives the standard deviation of the averaged measurements.

System: Saccharomyces cerevisiae
Test: protein stability index of tFT-peptide fusion (C-terminal peptide) (PSI (0-1 scale)); higher = more stable (slower turnover)
Conditions: temperature: 30 C
Method: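 MPS profiling in S. cerevisiae of the yeast C-terminome library: the last 12 aa of each annotated ORF are fused to the C-terminus of a sfGFP-mCherry timer, after a GGGS linker. Cells are FACS-sorted into 8 mCherry/sfGFP bins and deep-sequenced. PSI runs from 0 (unstable) to 1 (stable); wild type and das1Δ backgrounds, two technical replicates each.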

[1] = genetic background: das1 deletion

Sequence	protein stability index [1]	protein stability index (genetic background: wild type)
DDDEDGYNPYTL [PAP2 C-terminal 12 aa]	0.7215 ± 0.0049	0.697 ± 0.0073
ERDGYYYLKRSS [VHT1 C-terminal 12 aa]	0.715 ± 0.019	0.694 ± 0.02
LGKGGKGKRKMK [LSO2 C-terminal 12 aa]	0.705 ± 0.027	0.64 ± 0.018
IFNATASNPFGF [SLA1 C-terminal 12 aa]	0.738 ± 0.029	0.747 ± 0.045
EDKGLLSCCTVM [YCP4 C-terminal 12 aa]	0.786 ± 0.011	0.743 ± 0.032
SLDITEDWEVIF [ROT2 C-terminal 12 aa]	0.725 ± 0.023	0.7587 ± 0.0031
LLYPVKSESSTV [PDR16 C-terminal 12 aa]	0.68 ± 0.013	0.676 ± 0.01
FNVTKKSLTNHS [CDS1 C-terminal 12 aa]	0.6978 ± 0.0048	0.742 ± 0.049
FWHEVVVFPIPN [YDR015C C-terminal 12 aa]	0.717 ± 0.017	0.716 ± 0.062
MYGLGIRDCCIM [RCY1 C-terminal 12 aa]	0.7921 ± 0.0075	0.776 ± 0.088
SLNRPAERGGNR [YNL143C C-terminal 12 aa]	0.69578 ± 0.00021	0.688 ± 0.041
IPKIPKIVNGFK [DCS1 C-terminal 12 aa]	0.694 ± 0.012	0.6501 ± 0.0018
RDLPSVLAKYGF [RRG1 C-terminal 12 aa]	0.7236 ± 0.0048	0.703 ± 0.04
VMPIFIYFYTVV [CDC1 C-terminal 12 aa]	0.38 ± 0.044	0.343 ± 0.0079
KKRISEKQHFIE [AMF1 C-terminal 12 aa]	0.689 ± 0.038	0.633 ± 0.016
VAQNPVLAAVIA [KAP123 C-terminal 12 aa]	0.455 ± 0.013	0.466 ± 0.015
GEDVLEGGCLLI [YIR023C-A C-terminal 12 aa]	0.708 ± 0.051	0.727 ± 0.057
ALPNWNTPYLRR [UCC1 C-terminal 12 aa]	0.719 ± 0.015	0.746 ± 0.023
LSKMYIGWLPFW [MEC1 C-terminal 12 aa]	0.7227 ± 0.0057	0.6826 ± 0.002
KNDKIHLFMYCT [YBR103C-A C-terminal 12 aa]	0.54 ± 0.022	0.536 ± 0.0038
YSAVGNFFSRKK [YGR035W-A C-terminal 12 aa]	0.718 ± 0.019	0.6696 ± 0.002

Sequence	protein stability index [1]	protein stability index (genetic background: wild type)
VQRSASVVERQE [DUS4 C-terminal 12 aa]	0.6971 ± 0.0051	0.694 ± 0.0013
DYLYAKDDLLKW [GPP1 C-terminal 12 aa]	0.7287 ± 0.0048	0.709 ± 0.011
KITVSNLTNQQI [YCL001W-B C-terminal 12 aa]	0.6746 ± 0.0032	0.684 ± 0.04
GGQNSPGDMAVA [YDL199C C-terminal 12 aa]	0.692 ± 0.011	0.741 ± 0.068
LKKIATKFWGKH [TRK2 C-terminal 12 aa]	0.697 ± 0.016	0.714 ± 0.066
KETFIQVWEKQE [SAD1 C-terminal 12 aa]	0.663 ± 0.0072	0.651 ± 0.019
QNADEESSSEEE [GCD6 C-terminal 12 aa]	0.694 ± 0.011	0.6858 ± 0.0019
CIAKKVKTYWNK [YIL024C C-terminal 12 aa]	0.68219 ± 0.00014	0.676 ± 0.023
CIVNLASDTISL [YOL150C C-terminal 12 aa]	0.709 ± 0.0077	0.667 ± 0.01
PDDFEFGDDDFM [HCR1 C-terminal 12 aa]	0.712 ± 0.031	0.763 ± 0.041
ISISHSAVPNIV [YAL069W C-terminal 12 aa]	0.678 ± 0.0075	0.729 ± 0.037
MFGVHDKSVIIE [NSE5 C-terminal 12 aa]	0.692 ± 0.058	0.7 ± 0.032
ELKRSGKLTRSV [TRM7 C-terminal 12 aa]	0.699 ± 0.0086	0.662 ± 0.013
WVCQEILKLCKD [NRK1 C-terminal 12 aa]	0.675 ± 0.0095	0.713 ± 0.036
SLYPRFSGRCKP [DED81 C-terminal 12 aa]	0.703 ± 0.011	0.6745 ± 0.0059
ANMAAYDKAIHC [LPD1 C-terminal 12 aa]	0.681 ± 0.018	0.708 ± 0.033
MSKLGLIPKDFQ [HIS4 C-terminal 12 aa]	0.6931 ± 0.0056	0.707 ± 0.036
DKEQQQQQQQQP [ZDS1 C-terminal 12 aa]	0.702 ± 0.0076	0.708 ± 0.032
MVNEWIHGGFSL [PRC1 C-terminal 12 aa]	0.73 ± 0.025	0.702 ± 0.019
KTPNTKRRKTHK [HAS1 C-terminal 12 aa]	0.745 ± 0.024	0.75 ± 0.036
